Measurements: article PMC6194501, “A chemical reporter facilitates the detection and identification of lysine HMGylation on histones† †Electronic supplementary information (ESI) available: Experimental methods and figures. See DOI: 10.1039/c8sc02483a” (Chemical Science, 2018)
Blank lines part the entries; values can stand above or below the binder they belong to. Starred links: 1 amine or outer side, 2 acyl side, 3 side chain; linkers in the order of their positions; H or OH if unused. No end group written: not given here. Glutaryl = O=C(CCCC(=O)[*:2])[*:1]

Biological target: T1, human Sirt5 (human, UniProt Q9NXA8 37-310)
T1 construct: Sirt5 (sirtuin 5), human; the ESI (experimental methods) may tell them; also called sirtuin 5
T1 sequence (looked up): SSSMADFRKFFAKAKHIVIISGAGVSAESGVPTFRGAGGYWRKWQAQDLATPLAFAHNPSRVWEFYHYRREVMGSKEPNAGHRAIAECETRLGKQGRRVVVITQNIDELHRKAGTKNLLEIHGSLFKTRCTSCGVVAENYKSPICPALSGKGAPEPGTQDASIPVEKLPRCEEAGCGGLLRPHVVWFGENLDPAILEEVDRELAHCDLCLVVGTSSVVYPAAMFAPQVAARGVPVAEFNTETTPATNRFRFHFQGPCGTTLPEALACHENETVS
Test: ITC; isothermal titration calorimetry of Sirt5 with H3K9 acyl peptides; which partner was titrated and the conditions are not told in the text shown
Conditions: both partners purified

Kd: 35 µM
B1: H3K9mal (peptide)
chain: ARTKQTARKSTGGKA
modifications: malonyl-lysine (Kmal) at Lys9

Kd: 12.6 µM
B2: H3K9glu (peptide)
chain: KQTARK(Glutaryl)STGGKA

Kd: 61.7 µM
B3: histone H3 peptide carrying an HMG mark at Lys9 (peptide)
chain: KQTARK(HMG)STGGKA
